Measured values published in article PMC10022743.

B1: HA–YKT6-WT (full-length, siRNA-resistant) [human] / SNAP29 [human (endogenous in HEK293T)] (parent)
chain 1: MKLYSLSVLYKGEAKVVLLKAAYDVSSFSFFQRSSVQEFMTFTSQLIVERSSKGTRASVKEQDYLCHVYVRNDSLAGVVIADNEYPSRVAFTLLEKVLDEFSKQVDRIDWPVGSPATIHYPALDGHLSRYQNPREADPMTKVQAELDETKIILHNTMESLLERGEKLDDLVSKSEVLGTQSKAFYKTARKQNSCCAIM
chain 2: MSAYPKSYNPFDDDGEDEGARPAPWRDARDLPDGPDAPADRQQYLRQEVLRRAEATAASTSRSLALMYESEKVGVASSEELARQRGVLERTEKMVDKMDQDLKISQKHINSIKSVFGGLVNYFKSKPVETPPEQNGTLTSQPNNRLKEAISTSKEQEAKYQASHPNLRKLDDTDPVPRGAGSAMSTDAYPKNPHLRAYHQKIDSNLDELSMGLGRLKDIALGMQTEIEEQDDILDRLTTKVDKLDVNIKSTERKVRQL

Variants of: B1
Test: immunoprecipitation followed by mass spectrometry
Settings: with SNAP29 [human (endogenous in HEK293T)], 2 h EBSS and 300 nM Torin 1, read off a plot
[1] = YKT6 siRNA-treated HEK293T WT cells

| Variant | screen value (HEK293T WT cells) [log2] | screen value [1] [log2] |
| --- | --- | --- |
| chain 1 MKLYSLSVLYKGEAKVVLLKAAYDVSSFSFFQRSSVQEFMTFTSQLIVERSSKGTRASVKEQDYLCHVYVRNDSLAGVVIADNEYPSRVAFTLLEKVLDEFSKQVDRIDWPVGSPATIHYPALDGHLSRYQNPREADPMTKVQAELDETKIILHNEMESLLERGEKLDDLVSKSEVLGTQSKAFYKTARKQNSCCAIM [chain 1 T156E] | -2.3 | -2.3 |
| chain 1 MKLYSLSVLYKGEAKVVLLKAAYDVSSFSFFQRSSVQEFMTFTSQLIVERSSKGTRASVKEQDYLCHVYVRNDSLAGVVIADNEYPSRVAFTLLEKVLDEFSKQVDRIDWPVGSPATIHYPALDGHLSRYQNPREADPMTKVQAELDETKIILHNAMESLLERGEKLDDLVSKSEVLGTQSKAFYKTARKQNSCCAIM [chain 1 T156A] | 2 | 2 |
